Experimental data reported in US7732178B2, “Laccase enzymes and their uses” (AB Enzymes Oy, priority 2004, dated 2010).

How the values were obtained:
[1] = Specific activity towards guaiacol; format: biochemical; conditions: 25 mM MES buffer, pH 5.5
Description: (§1) Specific activities of the purified T. arenaria and C. thermophilum laccases were determined towards different laccase substrates.

[2] = Isoelectric focusing (pI); format: physicochemical; conditions: pH range 3-9
Description: Molecular weight of the T. arenaria and C. thermophilum laccases were determined on SDS-PAGE according to Laemmli (1970) The gels used in the SDS-PAGE analysis were ready-made 12% Tris HCl gels (BioRad). Protein bands were visualized by staining with Coomassie Brilliant Blue (R 350; Pharmacia) and compared with molecular weight markers (Prestained Protein Marker Broad Range #7708S; New England BioLabs, Beverly, Mass.). The molecular weight of the both laccases was approximately 80 kDa. The isoelectric point of the laccases was determined with isoelectric focusing within the pH range of 3-9 (Pharmalyte IEF, Pharmacia) on a LKB 2117 Multiphor II Electrophoresis System (LKB Pharmacia, Bromma, Sweden) according to the manufacturer's instructions.
The purified recombinant Thielavia and Chaetomium laccases were characterized in terms of pH optimum, thermal stability, and pI as described in Example 2. The molecular weight was determined by MALDI-TOF mass spectrometry on a Ultraflex™ time-of-flight instrument (BrukerDaltonics, Germany) as previously described (Palonen et al., 2003). The redox-potentials of the T1 coppers of for CtLcc, and TaLcc2 laccases were determined by photometric copper titration in 0.1 M KH2PO4 (pH 6.0) as described by Xu et al. (1996) using the redox titrant couple K3Fe(CN)6/K4Fe(CN)6. The redox potential of TaLcc1 was determined with a combined Pt—AgCl/KCl microelectrode at pH 5.0 according to Sigoillot et al (2004). The characterization results are collected to Table 14.

[3] = Specific activity towards di-methoxy-phenol (DMP); format: biochemical; conditions: 25 mM MES buffer, pH 5.5
Description: as §1

[4] = Specific activity towards ABTS; format: biochemical; conditions: 25 mM succinate buffer pH 4.5, 25° C.
Description: The activity assay was carried out in accordance with the method developed by Niku-Paavola et al. (1988). The sample was diluted with 0.025 M succinate buffer, pH 4.5. […] The activity is expressed as nano katals.
as §1

[5] = Specific activity towards syringaldazine; format: biochemical; conditions: 25 mM MES buffer, pH 5.5
Description: as §1

B1: TaLcc3: Thielavia arenaria ALKO 4197 laccase, SEQ ID NO: 43, produced in Trichoderma reesei (protein)
chain: MVCLQYQLTAACFAVLAVVTTPASCSPVQPSPVHDLLPRQTIIPGGKPCGQNNATNRGCWKNNWNITTDYEVDTPPAFNTRVYDLHITNVTNWLGPDGVRKPAMLINGSFPGPTISADWGDYIIVNVHNDMQDNGTSIHWHGIRQLGESNQDGANGVTECPIPPGSSKTYDFHVTQYGTSWYHSHYSNQYGNGVVGALIVRGPASANYDIDLGPYLISDYYYETADRLHLRAELVSNGPPPDSDNILFRGKNINPKRAGSGSYDRLVLTPGKKHLIRLINASVDNSFVISLVGHNFTVISTDMVPITPVVRSSLFMGVGQRYDVIVEANQPVGNYWLNATLEAQNNCGHSVNPFPAAIVQYEGASSTALPTNRGTPLTATCNGEKGFSPIVKRTVSSSLFQPSTLPVSLEFPTTDRGQVFEWRVKNTPISVEWEHPVLEYILQGNTSFPAKANLIEVPQANVWTFWVIQNGFGLPHPIHLHGHDFLVLGVGNGTFDAASMRGLLNFNNPVRRDVEQMPGNGWLVIAFKTDNPGCWLMHCHIGWHVAMGLGIQFLERRSDILALMKLDQMVPNCEAWRAYARTSPYLPKLDSGLKRGVEMREGMEPAVRRIG
modifications: Thielavia arenaria ALKO4197; (1)..(611) Deduced amino acid sequence of Thielavia arenaria LAKO4197 TaLcc3
- Specific activity on guaiacol [1]: 0 nkat/mg
- pI [2]: 7.0-8.0
- Specific activity on DMP [3]: 2.1 nkat/mg
- Specific activity on ABTS [4]: 8.3 nkat/mg
- Specific activity on syringaldazin [5]: 3.6 nkat/mg

B2: MaL: well-known fungal laccase from Melanocarpus albomyces (protein, UniProt Q70KY3 51-609, looked up)
Laccase-1: EPTCNTPSNRACWSDGFDINTDYEVSTPDTGVTQSYVFNLTEVDNWMGPDGVVKEKVMLINGNIMGPNIVANWGDTVEVTVINNLVTNGTSIHWHGIHQKDTNLHDGANGVTECPIPPKGGQRTYRWRARQYGTSWYHSHFSAQYGNGVVGTIQINGPASLPYDIDLGVFPITDYYYRAADDLVHFTQNNAPPFSDNVLINGTAVNPNTGEGQYANVTLTPGKRHRLRILNTSTENHFQVSLVNHTMTVIAADMVPVNAMTVDSLFLAVGQRYDVVIDASRAPDNYWFNVTFGGQAACGGSLNPHPAAIFHYAGAPGGLPTDEGTPPVDHQCLDTLDVRPVVPRSVPVNSFVKRPDNTLPVALDLTGTPLFVWKVNGSDINVDWGKPIIDYILTGNTSYPVSDNIVQVDAVDQWTYWLIENDPEGPFSLPHPMHLHGHDFLVLGRSPDVPAASQQRFVFDPAVDLARLNGDNPPRRDTTMLPAGGWLLLAFRTDNPGAWLFHCHIAWHVSGGLSVDFLERPADLRQRISQEDEDDFNRVCDEWRAYWPTNPYPKIDSGL
- Specific activity on guaiacol [1]: 90 nkat/mg
- Specific activity on DMP [3]: 290 nkat/mg
- Specific activity on ABTS [4]: 840 nkat/mg
- Specific activity on syringaldazin [5]: 380 nkat/mg
